According to publication PMC8231982:

Molecular target: influenza hemagglutinin full length protein, A/New-York/55/04 (H3N2) (influenza A virus A/New-York/55/04 (H3N2))
Assay: SPR

wild-type cyanovirin-N (WT CV–N), sequence (P81180 whole entry): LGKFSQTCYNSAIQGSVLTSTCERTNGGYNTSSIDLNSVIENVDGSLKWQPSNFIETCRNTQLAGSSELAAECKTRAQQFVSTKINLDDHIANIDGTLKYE

## wild-type cyanovirin-N (WT CV–N) (from UniProt P81180 1-101) (natural protein)
  Kd: 5.7 nM
